What was measured:
[1] = target: T1, RSV prefusion F (preF), subtype B (respiratory syncytial virus subtype B); test: BLI, IgG
T1 construct: also called Prefusion subtype B

[2] = target: RSV F on RSV subtype B virus (mKate-RSV B 18537) (respiratory syncytial virus B 18537, UniProt P13843 26-574); test: cell-based or functional assay
[3] = target: RSV F on RSV subtype A virus (mKate-RSV A2) (respiratory syncytial virus A2, UniProt P03420 26-574); test: cell-based or functional assay
[4] = target: T2, RSV postfusion F (postF), subtype A (respiratory syncytial virus subtype A, UniProt P03420 26-513); test: BLI
T2 construct: also called Postfusion subtype A; F deltaFP

[5] = target: RSV F on RSV-A2 virus (Respiratory Syncytial Virus (RSV-A2), UniProt P03420 26-574); test: cell-based or functional assay
[6] = target: RSV postfusion F (postF), F ΔFP (Respiratory Syncytial Virus, UniProt P03420 26-513); test: BLI, IgG on anti-human IgG sensor, 100 nM antigen, 1:1 fit
[7] = target: RSV prefusion F (preF), DS-Cav1 (Respiratory Syncytial Virus, UniProt P03420 26-513); test: as above

Binder | Kd [1] [nM] | Neut IC50 subtype B [2] [µg/mL] | Neut IC50 subtype A [3] [µg/mL] | binding result [4] | Neutralization IC50 (RSV subtype A) [5] [µg/mL] | Kd [6] [nM] | Kd [7] [nM]
ADI-25562 (antibody, V domains shown, full-length IgG; also called Ab 453) VH: QVQLVESGGGLVKPGGSLRLSCAASGFTFSDYYMSWIRQAPGKGLEWVSYISSSSSYTNYADSVKGRFTISRDNAKNSLYLQMNSLRAEDTAVYYCARVGYSSSWYNYFDYWGQGTLVTVSS VL: SYVLTQPPSVSGAPGQRVTISCTGSSSNIGAGYDVHWYQQLPGTAPKLLIYGNSNRPSGVPDRFSGSKSGTSASLAITGLQAEDEADYYCQSYDSSLSGPVFGGGTKLTVL | 3.32 | 1.14 | 1.18 | no binding | – | – | –
ADI-19420 (antibody, V domains shown, full-length IgG) VH: EVQLLESGGGLVKPGGSLRLSCAASGFTFSSYSMNWVRQAPGKGLEWVSSISSSSSYIYYADSVKGRFTISRDNAKNSLYLQMNSLRAEDTAVYYCARVGWGYSYGYWFDPWGQGTLVTVSS VL: QSVLTQPPSVSGAPGQRVTISCTGSSSNIGAGYDVHWYQQLPGTAPKLLIYGNSNRPSGVPDRFSGSKSGTSASLAITGLQAEDEADYYCQSYDSSLSGVVFGGGTKLTVL | 2.47 | 0.64 | 0.55 | no binding | – | – | –
ADI-41463 (antibody, V domains shown, also called Ab 747; Antibody Number 747) VH: QVQLVQSGAEVKKPGASVKVSCTASGYSFTDYDISWVRQAPGQGLEWMGWISAYNGNTNYAQKFQDRVTMNTDTSTNTAYMELRGLRSDDTAVYYCARNCYYGSGTCYIEDYYFDYWGQGTLVTVSS VL: DIQMTQSPSSLSASVGDRVTITCRASQDIKNDLGWYQQKPGKPPKRLIYGASRSQSGVPSRFSGSGSGTDFTLTIYSLQPEDFATYYCLQHSDYPFTFGQGTRLEIK | – | – | – | – | > 25 | 0.485 | 2.68
ADI-41461 (antibody, V domains shown) VH: QVQLVQSGAEVKKPGASVKVSCRASGYTFSSYDINWVRQATGQGLEWMGWMSPNSANTGYAQKFQGRVTMTRDTSINTAYMELSSLSSEDTAVYYCARFLGYCSGGSCYPGYGMDVWGQGTTVTVSS VL: EIVLTQSPDSLAVSLGERATINCKSSQNVLYSSNNKDYLSWYQQKPGQPPKLLIYWASTRESGVPDRFSGSGSGTDFTLTINSLQAEDVAVYYCQQYYGTPYTFGQGTKLEIK | – | – | – | – | > 25 | 0.548 | 2.3
ADI-41460 (antibody, V domains shown) VH: QVTLKESGPALVKPTQTLTLTCTFSGFSLNTRGMCVSWVRQPPGKALEWLARIDWDDDKNYSTSLRTRLTISKDTSRNQVVLAMANMDPVDTATYYCARCARYDRSGYYVWYLDSWGQGTLVTVSS VL: DIQMTQSPSSLSASVGDRVTITCRASQTIASYLNWYQQKPGKAPKLLIYVASTLQSGVPSRFSGSGSGTDFTLTISSLQPEDFATYYCQQSYSLTQWTFGQGTKVEIK | – | – | – | – | > 25 | 0.632 | 1.23
ADI-19421 (antibody, V domains shown, full-length IgG) VH: EVQLLESGGGVVQPGRSLRLSCAASGFTFSSYGMHWVRQAPGKGLEWVAVISYDGSNKYYADSVKGRFTISRDNSKNTLYLQMNSLRAEDTAVYYCAKDIHHVLRFLDPDYWGQGTLVTVSS VL: QSVLIQPASVSGFPGQSITISCTGTSSDVGGYNYVSWYQQHPGKAPKLMIYEVSNRPSGVSNRFSGSKSGNTASLTISGLQAEDEADYYCSSYTSSSTLVFGGGTKLTVL | 5.42 | 3.3 | 10 | no binding | – | – | –
ADI-19422 (antibody, V domains shown, full-length IgG) VH: not shown VL: QPVLTQPPSVSVAPGKTARITCGGNNIGSKSVHWYQQKPGQAPVLVVYDDSDRPSGIPERFSGSNSGNTATLTISRVEAGDEADYYCQVWDSSSDHWVFGGGTKLTVL | 10.8 | 1.9 | 0.73 | no binding | – | – | –
ADI-19424 (antibody, V domains shown, full-length IgG) VH: EVQLLESGGGLVQPGGSLRLSCAASGFTVSSNYMSWVRQAPGKGLEWVSDIYSGGRTDYADSVKGRFTISRDNSKNTLDLQMNSLRAEDTAVYYCARETLGMDHWYFDLWGRGTLVTVSS VL: QPGLTQPPSVSVAPGKTARITCGGNNIGSKSVHWYQQKPGQAPVLVVYDDSDRPSGIPERFSGSNSGNTATLTISRVEAGDEADYYCQVWDSTSDHPVFGGGTKLTVL | 1.71 | 0.21 | 0.08 | no binding | – | – | –
ADI-41550 (antibody, V domains shown) VH: QVQLVQSGAEVKMPGASVRVSCKASGYTLGSHGITWVRQAPGQGLEWMGWISANNFNTHYAQKFQGRVTMTTDTSTSTAYMELRSLRSDDTAVYYCAREVMGHMVETISFDYWGQGTLVTVSS VL: QPVLTQPPSVSVAPGQTARITCGGNNIGSESVHWYQQKPGQAPVLVVHDDSDRPSGIPERFSGSNSGNTATLTISRVEAGDEADYYCQVWDFTPDHPVFGGGTKVTVL | – | – | – | – | > 25 | 25.7 | –
ADI-19425 (antibody, V domains shown, full-length IgG; also called Ab 140) VH: EVQLVESGGGLVKPGGSLRLSCAASGFTFSSYSMNWVRQAPGKGLEWVSSISSSSSYIYYADSVKGRFTISRDNAKNSLYLQMNSLRAEDTAVYYCARLGYCSGGSCHFDYWGQGTLVTVSS VL: QPVLTQPPSVSGAPGQRVTISCTGSSSNIGAGYDVHWYQQLPGTAPKLLIYGNSNRPSGVPDRFSGSKSGTSASLAITGLQAEDEADYYCQSYDSSLSGFYVFGTGTKLTVL | 1.37 | 0.04 | 0.02 | no binding | – | – | –
ADI-41456 (antibody, V domains shown, also called Ab 740; Antibody Number 740) VH: EVQLLESGGGLFHPGGSLTLSCVASGFTLSTYYMHWVRQAPGKGLVWVARINSDGGYTTYADSVKGRFTVSRDNAKNTLYLQMNSLRVEDTAVYYCAREWVEFDSWGQGTLVTVSS VL: NFMLTQPHSVSASPGKTVTISCTRSSGNIASNYVQWYQQRPGSSPTTVITEDNQRPSGVPDRFSGSIDSSSNSASLTISGLKTEDEADYYCQSYDSSTYVFGTGTKLTVL | – | – | – | – | > 25 | 0.267 | 1.48
ADI-41459 (antibody, V domains shown, also called Ab 743; Antibody Number 743) VH: QVQLVESGGGLVQPGGSLRLSCAASGFPFSAYGINWVRQAPGKGLEWVSYISSTSTTIKYADSVKGRFTISRDDAKNSLYLQLRSLRPEDTAVYYCAGGVWSGYYIDFWGQGTPVTVSS VL: NFMLTQPQSVSESPGKTVTISCTRSSGSIGSNFVQWYQQRPGSSPTTVIYEDYQRPSGVPDRFSGSIDSSSNSASLTISGLKTEDEADYYCQSYDADMMVFGGGTKLTVL | – | – | – | – | > 25 | 0.343 | 1.89
ADI-25567 (antibody, V domains shown, full-length IgG) VH: QVQLQQWGAGLLKPSETLSLTCAVYGGSFSGYYWSWIRQPPGKGLEWIGEINHSGSTNYNPSLKSRVTISVDTSKNQFSLKLSSVTAADTAVYYCARGLPRFGVVTPNWFDPWGQGTLVTVSS VL: not shown | 3.83 | 1.94 | 0.33 | no binding | – | – | –
ADI-41455 (antibody, V domains shown) VH: QVQLQESGPGLVKPSQTLSLTCSVSEGSVISGDYYWSWIRQSPGKGLEWLGYIHYSGSTYYNPSLKSRVTISVDTSKKQFSLKLSSVTAADTAVYYCARDLGCIGGVCSAYGLEHNYYFGMDVWGQGTTVTVSS VL: EIVLTQSPATLSLSPGERATLSCRASQSVSSYLAWYQQKPGQAPRLLIYTASNRATGIPARFSGSGSGTDFTLTISSLEPEDFAVYYCQQRSSWPPYTFGQGTKLEIK | – | – | – | – | > 25 | 0.638 | 1.53
